How the values were obtained:
amyloid-beta (Abeta) = target: T1, amyloid-beta (Abeta) (Homo sapiens, UniProt P05067); assay: In vitro ligand binding (ELISA) to immobilized amyloid-beta; conditions: increasing dilutions of fusion protein; FIG. 7
T1 construct: Amyloid Beta (1-40) from Biosource; purchased Biosource
Experimental: (§1) For example, the RAGE fusion protein may be used in a binding assay to identify potential RAGE ligands. In one example embodiment of such a binding assay, a known RAGE ligand may coated onto a solid substrate (e.g., Maxisorb plates) at a concentration of about 5 micrograms per well, where each well contains a total volume of about 100 microliters (μL). The plates may be incubated at 4° C. overnight to allow the ligand to absorb. Alternatively, shorter incubation periods at higher temperature (e.g., room temperature) may be used. […] The fusion protein bound to the immobilized ligand may be detected in a variety of ways. […] The bound complex may be detected by adding the alkaline phosphatase substrate, para-nitrophenylphosphate (PNPP), and measuring conversion of PNPP to para-nitrophenol (PNP) as an increase in absorbance at 405 nm. […] Binding was detected by the addition of an immunodetection complex containing a monoclonal mouse anti-human IgG1 diluted 1:11,000 to a final assay concentration (FAC) of 21 ng/100 μL, a biotinylated goat anti-mouse IgG diluted 1:500, to a FAC of […], and an avidin-linked alkaline phosphatase. […] Binding of the complex to the immobilized fusion protein was quantified by measuring conversion of PNPP to para-nitrophenol (PNP) which was measured spectrophotometrically at 405 nm. […]

amphoterin (Ampho) = target: T2, amphoterin (Ampho) (Homo sapiens, UniProt P09429); assay: In vitro ligand binding (ELISA) to immobilized amphoterin; conditions: increasing dilutions of fusion protein; FIG. 7
T2 sequence (P09429 1-215): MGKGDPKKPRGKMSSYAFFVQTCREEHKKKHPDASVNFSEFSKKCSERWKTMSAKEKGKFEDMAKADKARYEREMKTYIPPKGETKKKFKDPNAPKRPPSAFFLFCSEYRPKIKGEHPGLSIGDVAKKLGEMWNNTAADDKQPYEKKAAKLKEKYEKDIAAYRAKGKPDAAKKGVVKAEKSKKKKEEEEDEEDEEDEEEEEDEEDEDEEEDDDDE
Experimental: as §1

[1] = Pharmacokinetic profile of TTP-4000 after IV injection, plasma ELISA; assay type: in vivo, monkeys; conditions: single IV bolus 5 mg/kg, 2 animals, FIG. 11
Experimental: Following collection, the tubes were placed on wet ice (maximum 30 minutes) until centrifugation under refrigeration (at 2 to 8° C.) at 1500×g for 15 minutes. Each harvested plasma sample was then stored frozen (−70° C.±10° C.) until assayed for RAGE polypeptide using an ELISA at various time-points following the injection, as described in Example 6.
Initially, 50 uL of the RAGE specific monoclonal antibody 1HB1011 at a concentration of 10 ug/mL in 1×PBS pH 7.3 is coated on plates via overnight incubation. When ready for use, plates are washed three times with 300 uL of 1× Imidazole-Tween wash buffer and blocked with 1% BSA. […] The samples are allowed to incubate at room temperature for one hour. After incubation, the plates are plates are washed three times. A Goat Anti-human IgG1 1 (Sigma A3312) AP conjugate in 1×PBS with 1% BSA is added and allowed to incubate at room temperature for 1 hour. The plates are washed three times. Color was elucidated with paranitrophenylphosphate.

Fc receptor = Fc receptor activation: TNF-α secretion from THP-1 cells; assay type: cell-based; conditions: wells precoated with 10 ug/well heat aggregated protein, 24 hours, FIG. 12
From the text: Fc stimulation results in TNF-α secretion.

T1 sequence (P05067 672-711 limits assumed): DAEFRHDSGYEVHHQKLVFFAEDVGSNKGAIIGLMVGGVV

B1: TTP-4000: four domain RAGE fusion protein (SEQ ID NO: 32): human RAGE amino acids 1-251 linked to CH2 and CH3 domains of human IgG (protein)
chain: MAAGTAVGAWALVLSLWGAVVGAQNITARIGEPLVLKCKGAPKKPPQRLEWKLNTGRTEAWKVLSPQGGGPWDSVARVLPNGSLFLPAVGIQDEGIFRCQAMNRNGKETKSNYRVRVYQIPGKPEIVDSASELTAGVPNKVGTCVSEGSYPAGTLSWHLDGKPLVPNEKGVSVKEQTRRHPETGLFTLQSELMVTPARGGDPRPTFSCSFSPGLPRHRALRTAPIQPRVWEPVPLEEVQLVVEPEGGAVAPPSVFLFPPKPKDTLMISRTPEVTCVVVDVSHEDPEVKFNWYVDGVEVHNAKTKPREEQYNSTYRVVSVLTVLHQDWLNGKEYKCKVSNKALPAPIEKTISKAKGQPREPQVYTLPPSRDELTKNQVSLTCLVKGFYPSDIAVEWESNGQPENNYKTTPPVLDSDGSFFLYSKLTVDKSRWQQGNVFSCSVMHEALHNHYTQKSLSLSPGK
binding to immobilized amyloid-beta (absorbance at 405 nm) (amyloid-beta (Abeta)): specifically interact
binding to immobilized amphoterin (absorbance at 405 nm) (amphoterin (Ampho)): specifically interact
terminal half-life [1]: greater than 300 hours
TNF generated (Fc receptor): less than 2 ng/well

Reference: patent US8877192B2, “Rage fusion proteins and methods of use” (TransTech Pharma, LLC, priority 2004, dated 2014)
